Values quoted from earlier work in PMC4525192 (European Journal of Nuclear Medicine and Molecular Imaging, 2014).

Test system: tumour
Settings: intravenously administered

In the case of `C[C@@H](O)[C@@H]1NC(=O)[C@H](CCCCN)NC(=O)[C@@H](Cc2c[nH]c3ccccc23)NC(=O)[C@H](Cc2ccc(O)cc2)NC(=O)[C@@H](NC(=O)[C@@H](Cc2ccccc2)NC(=O)CN2CCN(CC(=O)O)CCN(CC(=O)O)CCN(CC(=O)O)CC2)CSSC[C@@H](C(=O)N[C@H](CO)[C@@H](C)O)NC1=O` [DOTATOC, (DOTA^0-Phe^1-Tyr^3) octreotide], the “Time after injection at which 80 % of Umax is reached” value is listed as 45 min and the “Time of tumoral accumulation maximum (Umax) after injection” value is listed as “about 70 min”.
